This note sets out measurements from publication PMC10372118.

This test has as its target truncated human ACE2 (residues 19-613 with a C-terminal AviTag and 6xHis-tag), biotinylated (human) (UniProt Q9BYF1). In words: BLI. A general note: Biolayer interferometry detects binding as a change in optical thickness at a sensor tip.

In turn, “SARS-CoV-2 ancestral receptor-binding domain (RBD), recombinant (from UniProt P0DTC2) (domain or fragment)” showed a t1/2 of 1.39 min.
